Experimental data reported in the DeepSol protein solubility set.

test: soluble on expression in E. coli; label from the status in PepcDB or PDB records

Q: With “MSAEEQDTRSGGIQVIARAAELLRVLQAHPGGLSQAEIGERVGMARSTVSRILNALEDEGLVASRGARGPYRLGPEITRMATTVRLGVVTEMHPFLTELSRELDETVDLSILDGDRADVVDQVVPPQRLRAVSAVGESFPLYCCANGKALLAALPPERQARALPSRLAPLTANTITDRAALRDELNRIRVDGVAYDREEQTEGICAVGAVLRGVSVELVAVSVPVPAQRFYGREAELAGALLAWVSKVDAWFNGTEDRK” as the sequence, how does the “soluble on expression in E. coli” value read?
A: soluble

Q: With “MVRRIAVFSLYNEHGIADDYVIFLLEKLREFVERIVVVSNGNLSKLSEIAIKASCDQLLVRENVGFDVWGYKTGIDAVGFDALSEYDELILLNDTCYGPLFPFSEMFSEMERRDCDFWGSAAHSKMTPNPFTGTGHLPRHLTANFIAVREKMLKSRAFKTYWENLPAIKTYIDAIMLHESQFTKHFTDLGYSAEAYVDPDKYGSHYPAFINVDETIINRFPLLKRRPFFHDPTFLNAQGIDLPRALRVLEETSDYDLNLIWRNVLRTSELRNLNTNAALMSVLPDERAKDDDAPSDYGKIAVCAHIYYTDMLEEILALTGNIPVPYDFIATTDTPDKKAEIEATLAKRPGVKNVIVRVVEKNRGRDMSSLFISLRDLLVDDRYDLVCRLHTKKSPQVQASRSNLFKRHMLENLLNTRGYVHNVLDMFHDNPSVGLAVPPVVHISYPTMGHAWFFNRPKVEETARLLNIKVKFDHDTPVAAYGTMFWFRPRALRKMFEHKWKWEDFNAEPNHVDGGLAHVLERLIAYAAQDAGYLEHHHHHH” as the sequence, how does the “soluble on expression in E. coli” value read?
A: soluble

Q: With “MGSDKIHHHHHHMLAFAARTVVKPLGLLKPSSLMKVSGRFKAHQDALPRLPVPPLQQSLDYYLKALQPIVSEEEWAHTKQLVDEFQTSGGVGERLQKGLERRAKKMENWLSEWWLKTAYLQFRQPVVIYSSPGVILPKQDFVDLQGQLRFAAKLIEGVLDFKSMIDNETLPVEFLGGQPLCMNQYYQILSSCRVPGPKQDSVVNFLKSKRPPTHITVVHNYQFFELDVYHSDGTPLTSDQIFVQLEKIWNSSLQSNKEPVGILTSNHRNTWAKAYNNLIKDKVNRESVNSIQKSIFTVCLDKQVPRVSDDVYRNHVAGQMLHGGGSKFNSGNRWFDKTLQFIVAEDGSCGMVYEHAAAEGPPIVALVDHVMEYTKKPELVRSPMVPLPMPKKLRFNITPEIKNDIEKAKQNLSIMIQDLDIMMLTFHHFGKDFPKSEKLSPDAFIQVALQLAYYRIYGQACATYESASLRMFHLGRTDTIRSASIDSLAFVKGMGDSTVPEQQKVELLRKAVQAHRAYTDRAIRGEAFDRHLLGLKLQAIEDLVSMPDIFMDTSYAIAMHFNLSTSQVPAKTDCVMFFGPVVPDGYGICYNPMEAHINFSVSAYNSCAETNAARMAHYLEKALLDMRTLLQNHPRAKL” as the sequence, how does the “soluble on expression in E. coli” value read?
A: not soluble

Q: With “MSLSLRDEALEMHKRNQGKLEVKPNVKVTNKEELSLAYSPGVAEPCKDIYEDKRKVYDYTIKGNTVAVITDGTAVLGLGNIGPEASIPVMEGKAVLFKSFAGINGVPIALNTTDTEEIIKTVKLLEPNYGGINLEDISAPRCFEIEERLKKETNIPVFHDDQHGTAIVTMAGLVNALRVVNKDIAKIKVVLNGAGAAGIAIVKLLYAYGVRNMVMCDSRGAIFEGRSYGMNPTKDVVAKWTNKDKIEGSLEEVVKDADVFIGVSVANALSQDMVKSMADNPIIFAMANPNPEIIPDDAKAAGARVVGTGRSDYPNQINNVLAFPGIFRGALEVEATHINEEMKKAAVEAIADLIDSSELNEDYCIPGPFDKRVAPSVARNVAKAAMESGVARIEVDPQDVYDKTMKLTDLQEGHHHHHH” as the sequence, how does the “soluble on expression in E. coli” value read?
A: soluble

Q: For “NKNFWLGVRGNFTYATGKYEYVEEPYRPYPWLSHIGKRIEQSYGLVAERLFIDEEDIANSPVQTYGEYMPGDIKYKDINNDGIINDEDIVPIGFAKSPEIVYGFGVSMGYKNFDISCFFQGAARSSFFINSKATNPFMQMDLGGNNLNGMMQAYADDYWSESNRNIYATFPRLSTTDIANNNRNSTWWLRDGSYLRLKSVEIGYTLPKRLTSHLGMSNLRIYASGLNLFAWNRFKLWDVEQGNDGMQYPIQAVYNFGINLSF”, which “soluble on expression in E. coli” value is on record?
A: not soluble

Q: Which “soluble on expression in E. coli” value does the source give for “MAHHHHHHMNAVKEADVVFLEAYTSFLINSNAEKLAGIYGKPVILADREMVESGAVLDDAKVKKVVLLVVGDVFGATTHSDLIVRCNRQGIESKIVHNASIINAVGCCGLQLYRFGQVISLCFWTETWRPDSWYERLQSNRAAGIHTLVLLDIKVKEISDENLARGRKIYEPPRYMTIRQAIEQILEVEGYKQGGAVAADGSTFAVGLARVGSESQQVVAGTMKDLLSVDFGAPLHSLVIAGDVHDCEQEHVDLFRMAGQ” here?
A: not soluble

Q: For “MDREALQHRVLITVSRSSLFRVVEGILEEGKVSSMASSITEYLLNNRYSRERALEHISVYLESELEKSGIDLDDGVDGISLAILFVYEELLENKSEFFSKIQEKSGHALHPPSSDSEE”, which “soluble on expression in E. coli” value is on record?
A: not soluble

Q: For “MVFSKKPITKYITWAIVTSQIPLPVIADSDNEIQSWIAGTASSISPHLQEGTLEDYAKGKIKALPGQAANHLVNEGIKSAFPEIIFRGGVNLEDGAKYRSSEFDMFIPVQETTSSLLFGQLGFRDHDNSSFDGRTYVNVGMGYRQEVNGWLLGVNTFLDADIRYSHLRGGIGGEVYKDSLAFSGNYYFPLTGWKMSAAHELHDERPAYGFDLRTKGTLPDFPWFSGELTYEQYYGDKVDLLGNGTLSRNPRAAGAALVWNPVPLLEVRAGYRDAGNGGSQAEGGLRVNYSFGTPLHEQLDYRNVGAPSNTTNRRAFVDRNYDIVMAYREQASKIRITAMPVSGLSGTLVTLMATVDSRYPVEKVEWSGDAELLAGLQLQGSLGSGLILPQLPLTATDGQEYSLYLTVTDSRGTRVTSERIPVRVTQDETSFRSWINVINDDVQVEDGNFVINTPLPAGEEGKVIEWHYVRERSEEEWASLKPRHIKYQSDTPGLAFKALGGTERDGHWVERVLVTHIGDDARSLKLHIEASGPDDKHPVKGTVLLQAQSDSIAQKVTSVEVLFTPGTEEANGSVTAPVVGTEMRARTLCVNNTDCTDAFNYQWEISDEMKSWQSVPGATKATWLLPYSLNGESLQNKYIRVRIISDKGNAKGNTATSDAN”, which “soluble on expression in E. coli” value is on record?
A: not soluble

Q: Which “soluble on expression in E. coli” value does the source give for “LKEILDEMFRDEVQKLKYFLEDVKEEDEELYNKIVDALKLFKENYEIEDIKIPKKIRVFLVKNNILFLNPQKGSLKPQSYLVWNAIKMLL” here?
A: not soluble

Q: For “MSLASRRSKLIAVVVPQINNNMFVDTIQSLSDELARRGYHILLCVAGYTEQTEAELVATLLSRRPDGVVLTGIHHTIELKKVILNAAIPVVEIWDLTPTPLDMLVGFSHEKVGQATGEYLLSKGYRRPGLLWTADRRAAQRKQGLCSVLQRHAIHAVPQVDVPLPASLSLGRSGLSQLFDEGTFDVIVCSSDTLAQGAMMEAESRGLRIPHDLAVIGFGDLDFAASNRPSITTVSVDRRAIGQRAATLLADRIEQKPCAEAIVDIGFHLIGRESAEGHHHHHH”, which “soluble on expression in E. coli” value is on record?
A: not soluble

Q: For “MSLNSLKHPKVRDTRDMWDIREELTSEQKKQEKLLAEINKYDKFVNSYSQTKEMTKETALNNTLQSLKKTAGMTDITGSGIVITISPLFSESLTGEPIENPPPDLLKKLINELNSYGAEHISINERRVVNHTVIRDINGTTKIDGYALDDYPLTVKVLAKDPDMLHSRVKGSGLEDLFASENLALKAGKSESKLTLKAYDRPLDVQQLKLLKDEGHHHHHH”, which “soluble on expression in E. coli” value is on record?
A: soluble

Q: Which “soluble on expression in E. coli” value does the source give for “MGSDKIHHHHHHSEEIFNGQVTDGEHSGAQLNIVPTVSSESTETRAGFDPKTDWAAGDALGLFMYKSSGWGDAYPRYDAQNNKSTRQANGWSQASPVYLLVDKATIWAYYPYNQAVTDGTKIPVPINVGTSVDYMWGKSTNQVSVIETDARIPMKHALSQFVVRLKVSPEYHNDGNLTSAKLKATGAKFATTGTMNLNDGGKITFQPTSTELTWSPNTTVPAQGQQAVDYAAAIYPMTLAAGEVSLEVVIDGATYTYAIPQITWEAGKRYIYSITMRSNDAEIGGENGQSVTIEGWTSTEEDITLVPVK” here?
A: not soluble

Q: With “KNNPDPTIYPVLDWNDIKFQDVIGEGNFGQVLKARIKKDGLRMDAAIKRMKEYASKDDHRDFAGELEVLCKLGHHPNIINLLGACEHRGYLYLAIEYAPHGNLLDFLRKSRVLETDPAFAIANSTASTLSSQQLLHFAADVARGMDYLSQKQFIHRDLAARNILVGENYVAKIADFGLSRGQEVYVKKTMGRLPVRWMAIESLNYSVYTTNSDVWSYGVLLWEIVSLGGTPYCGMTCAELYEKLPQGYRLEKPLNCDDEVYDLMRQCWREKPYERPSFAQILVSLNRMLEERKTYVNTTLYEKFTYAGIDCSAEEAA” as the sequence, how does the “soluble on expression in E. coli” value read?
A: soluble

Q: For “MGSDKIHHHHHHMTRVEELLSQIKNLKTEKNAIILGHNYMEYSVQLVSDFTGDSYDLAVKAMKTNAKIILFAGVYFMAEQASALNPNKKVLSPDPNAGCTLSDSLDVKTLQEYKEKYPNAPVVLYINTSIYAKALADYIVTSSTAVKVVQKLNADTILFGPDANLANYVQQKVPNKKIIKVPPNGRCIVHANYTKQLVELARKKYPNALLMAHPEAPLEILESADFVGSTNQMIQFSKENKNEEFIVATEIGMINALKIKNPSKKFYPLVTTEACACARCPYMNMINLEKVKRSLEEEVYEVKVPEDIAERVKRAFENTMKLL”, which “soluble on expression in E. coli” value is on record?
A: not soluble

Q: With “MLGAIAYTGNKQSLLPELKSHFPKYNRFVDLFCGGLSVSLNVNGPVLANDIQEPIIEMYKRLINVSWDDVLKVIKQYKLSKTSKEEFLKLREDYNKTRDPLLLYVLHFHGFSNMIRINDKGNFTTPFGKRTINKNSEKRFNHFKQNCDKIIFSSLHFKDVKILDGDFVYVDPPYLITVADYNKFWSEDEEKDLLNLLDSLNDRGIKFGLSNVLEHHGKENTLLKEWSKKYNVKHLNKKYVFNIYHSKEKNGTDEVYIFN” as the sequence, how does the “soluble on expression in E. coli” value read?
A: soluble

Q: With “MNEDVIVDRQYSHGAALTIRAFWAADEESRAAIAKASGLRWVPSSADQPGEQHWPYTEIFQRQMQMELGPDTETRLRIHQPSQLWVRAPSLGEGWLAVPLYPHPLRGQRI” as the sequence, how does the “soluble on expression in E. coli” value read?
A: not soluble

Q: For “MSLTDDEISSTETAPDIATQPPLFVLGVGAARLDAGRLAELLDAVAGAANLAIMLLLRDRQLLDEAHLRALLGKQATLLSVPFDGEKLQPGRFYLPPADTVVTLEEGRIRLRALPNGESDHGLIDSFFVSMAHDQDGNVIGLIMGRFDGDGTLGTAAIKECGGLALAVDDASLHGLDLRSASNPAAITDHILPLPQLTARIAAHMQRHHGFGHPGPLGVRNGSESDKLSQIAAILRNTTGHDFHGYKRATFLRRVQQRMQVAQVEMLEQYLHILRYRFDEPLQLFNDLLIGVTKFFRDRRGFELLEQQVIPRLFKGKHTDDSMRVWVLGCSTGEEAYSLAMLLREHAETLDSAPRIQIFASDIDGRALATARVGRYASSIVGEVALERLRRWFVKEGDTYVVNKELRELCVFSQHSIVKDPPFSRLDLVSCRNLLIYLDAELQNRVIPIFHFAIRPGGYLFLGNAENVSLQAQLFTPVDRSVRVFQREGHHHHHH”, which “soluble on expression in E. coli” value is on record?
A: not soluble

Q: Which “soluble on expression in E. coli” value does the source give for “LTPIVGPSNFRVQVAADMDFSQVEETREILDNAPVVRNEHTIQNNSIDQIALGVPGSLSNQPPVTGEAATNDSQNTNARSEVNRQYAVGSSVRRTQYQQGQIEKLSVSVLLNSKASPDGVAWSDADKAQISTMITDAVGISAARGDSLSLMSFNF” here?
A: not soluble

Q: For “QGKPREAAQHLEAEASRASGAQRNQLLADAAFAWHEAGDTARAQVLVRQVSVQQLTGESKARFVLLLGELALANRQPVRAFQYFGESSSGLSKKLQIRWLLGRAAALEANGDAFGAAQQRARADQALLGKARNENQAAITRLLAGLDHEVLLTRTAALPVGDPLYHFVGRVLLSRGEALPQPLEGSVQGSVGSSQRPSADTDGYRPPLKLAVLLPLTGSLATAAAPVRDGFLAGYYAETRRRPDLDFFDTGSTPVGAKAAYAKAIAAGADFVVGPLGRDEVSALFSQGQLSIPLLALNRSTGDRVSLPSGSASFSLAPEDDGVIAADYLLAQGQRNVIVIGSNDDVGRRGVQAFMDRFRARGGQVLAALGVADVPGDLGPRLRGADRADAVFLAVRGPTARVLAPQLASLGLSSKPQVGTSQLVLGTGKPEEDTLLDGIVYPTEPWSVQGVKSIPSAADVAVRLPNMRGAALRLFAFGVDAWKLSVYLEGLSAGGAGGGLRGATGTLRLDDSGNVIRIPIWATFRNGQSIPVEML”, which “soluble on expression in E. coli” value is on record?
A: not soluble
